Here are results for one substance from publication PMC5717261.

In this assay the target is Recombinant human MASP-2 (stabilized in a proenzyme form by mutation of the active site Ser 618 into Ala) (human). The experiment in a line: SPR; BIAcore 3000, 25 °C; BMP-1, mTLL-1 or MASP-2 immobilised by amine coupling on CM5; C1q or MBL injected (60 µl, 20 µl/min) at several concentrations in 50 mM triethanolamine-HCl, 145 mM NaCl, 2 mM CaCl2, 0.005% surfactant P20, pH 7.4; global fit to a 1:1 Langmuir model; apparent KD from kd/ka.

Chain of Recombinant human mannose-binding lectin (MBL) (P11226 21-248): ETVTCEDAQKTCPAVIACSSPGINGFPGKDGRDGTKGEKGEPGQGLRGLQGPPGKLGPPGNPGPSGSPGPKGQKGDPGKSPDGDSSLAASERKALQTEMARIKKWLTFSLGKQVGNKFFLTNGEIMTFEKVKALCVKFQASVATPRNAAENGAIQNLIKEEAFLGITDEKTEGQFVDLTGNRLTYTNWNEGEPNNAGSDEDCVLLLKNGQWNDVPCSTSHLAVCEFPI

For “Recombinant human mannose-binding lectin (MBL) (from UniProt P11226 21-248) (natural protein)”, the Kd is 1.7 nM; the koff – broadly, a measure of how fast the partners let go of each other – was 0.00047 s⁻¹; the kon (usually the rate constant with which the complex forms) was determined as 280000 M⁻¹ s⁻¹.
